Assay [1] addresses TLR5 of mice (mouse) (UniProt Q9JLF7). The experiment in a line: cell-based or functional assay.
In assay [2] the target is TLR5 of mice (mouse, UniProt Q9JLF7 27-859). The experiment in a line: cell-based or functional assay.
TLR5 of mice, sequence (Q9JLF7 27-859): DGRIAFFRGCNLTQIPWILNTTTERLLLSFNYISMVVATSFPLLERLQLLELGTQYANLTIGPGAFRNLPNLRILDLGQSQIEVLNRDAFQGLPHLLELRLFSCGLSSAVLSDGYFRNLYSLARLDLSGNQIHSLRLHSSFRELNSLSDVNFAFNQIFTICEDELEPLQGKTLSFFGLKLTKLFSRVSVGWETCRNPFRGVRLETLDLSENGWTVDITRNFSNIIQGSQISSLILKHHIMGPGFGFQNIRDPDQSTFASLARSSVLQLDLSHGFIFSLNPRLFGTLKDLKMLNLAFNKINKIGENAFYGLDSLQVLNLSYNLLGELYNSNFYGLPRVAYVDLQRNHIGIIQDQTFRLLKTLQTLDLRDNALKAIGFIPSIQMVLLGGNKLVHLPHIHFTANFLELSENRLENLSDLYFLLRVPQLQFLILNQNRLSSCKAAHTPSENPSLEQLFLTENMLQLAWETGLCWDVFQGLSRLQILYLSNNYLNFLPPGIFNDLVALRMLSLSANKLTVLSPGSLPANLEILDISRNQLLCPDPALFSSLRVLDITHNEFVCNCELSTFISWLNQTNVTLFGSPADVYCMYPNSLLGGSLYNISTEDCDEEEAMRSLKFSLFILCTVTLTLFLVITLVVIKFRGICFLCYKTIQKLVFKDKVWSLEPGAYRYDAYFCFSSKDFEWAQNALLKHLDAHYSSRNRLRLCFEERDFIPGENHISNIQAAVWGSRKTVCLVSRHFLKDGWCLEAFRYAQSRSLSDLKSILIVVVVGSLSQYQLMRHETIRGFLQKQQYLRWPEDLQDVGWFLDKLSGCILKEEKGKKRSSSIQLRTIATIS

TLR5 of mice (mouse), sequence (Q9JLF7 27-859): as above

On to “FliCΔ174-400 flagellin (from UniProt P06175 2-493) (ligand)”, for which, in assay [1], the CCL20 mRNA pulmonary levels 2 h after i.n. instillation, against mock-treated animals is 30 fold; the serum CCL20 after 10 µg i.v. is 0.85 ng/mL; the systemic pro-inflammatory effects (serum CCL20 and CXCL2 after i.v. injection), against wild type FliC came out at 100 fold.

B1: FliCΔ191-352 (ligand)
chain: AQVINTNSLSLLTQNNLNKSQSALGTAIERLSSGLRINSAKDDAAGQAIANRFTANIKGLTQASRNANDGISIAQTTEGALNEINNNLQRVRELAVQSANSTNSQSDLDSIQAEITQRLNEIDRVSGQTQFNGVKVLAQDNTLTIQVGANDGETIDIDLKQINSQTLGLDTLNVQQKYKVSDTAATVTGYLELEDGTSKTALNKLGGADGKTEVVSIGGKTYAASKAEGHNFKAQPDLAEAAATTTENPLQKIDAALAQVDTLRSDLGAVQNRFNSAITNLGNTVNNLTSARSRIEDSDYATEVSNMSRAQILQQAGTSVLAQANQVPQSVLSLLR
With B1, the “CCL20 mRNA pulmonary levels 2 h after i.n. instillation, against mock-treated animals” value (from here on “CCL20 mRNA pulmonary levels 2 h”) in assay [2] was roughly 30 fold.

B2: FliCΔ204-292 (ligand)
chain: AQVINTNSLSLLTQNNLNKSQSALGTAIERLSSGLRINSAKDDAAGQAIANRFTANIKGLTQASRNANDGISIAQTTEGALNEINNNLQRVRELAVQSANSTNSQSDLDSIQAEITQRLNEIDRVSGQTQFNGVKVLAQDNTLTIQVGANDGETIDIDLKQINSQTLGLDTLNVQQKYKVSDTAATVTGYADTTIALDNSTFKAALTAAGVTGTASVVKMSYTDNNGKTIDGGLAVKVGDDYYSATQNKDGSISINTTKYTADDGTSKTALNKLGGADGKTEVVSIGGKTYAASKAEGHNFKAQPDLAEAAATTTENPLQKIDAALAQVDTLRSDLGAVQNRFNSAITNLGNTVNNLTSARSRIEDSDYATEVSNMSRAQILQQAGTSVLAQANQVPQNVLSLLR
For B2, the “CCL20 mRNA pulmonary levels 2 h” value in assay [2] was roughly 30 fold.

B3: Salmonella enterica Serovar Typhimurium ATCC14028 flagellin FliC (ligand)
chain: AQVINTNSLSLLTQNNLNKSQSALGTAIERLSSGLRINSAKDDAAGQAIANRFTANIKGLTQASRNANDGISIAQTTEGALNEINNNLQRVRELAVQSANSTNSQSDLDSIQAEITQRLNEIDRVSGQTQFNGVKVLAQDNTLTIQVGANDGETIDIDLKQINSQTLGLDTLNVQQKYKVSDTAATVTGYADTTIALDNSTFKASATGLGGTDQKIDGDLKFDDTTGKYYAKVTVTGGTGKDGYYEVSVDKTNGEVTLAGGATSPLTGGLPATATEDVKNVQVANADLTEAKAALTAAGVTGTASVVKMSYTDNNGKTIDGGLAVKVGDDYYSATQNKDGSISINTTKYTADDGTSKTALNKLGGADGKTEVVSIGGKTYAASKAEGHNFKAQPDLAEAAATTTENPLQKIDAALAQVDTLRSDLGAVQNRFNSAITNLGNTVNNLTSARSRIEDSDYATEVSNMSRAQILQQAGTSVLAQANQVPQNVLSLLR
As to B3, the “CCL20 mRNA pulmonary levels 2 h” value in assay [2] is roughly 30 fold.

The record behind these values is patent publication US20110110962A1 (INSERM INSTITUT NATIONAL DE LA SANT ET DE LA RECHERCHE M …, published 2011).
